Consider 4 substances from article PMC10419091.

The target in series [1] is filamentous actin (F-actin) from rabbit m. psoas (rabbit) (UniProt P68135). As to the kind of experiment: co-sedimentation; 10 µM F-actin with 0.5 to 7.5 µM Tpm in 30 mM Hepes-Na pH 7.3, 200 mM NaCl; 40 min at 25 °C, then 40 min at 100,000 g at 4 °C; supernatants and pellets by SDS-PAGE; apparent affinity (K50%: Tpm concentration at which half of the actin is saturated).

Series [2] has the same target. Put plainly: temperature dependence of light scattering; thermally induced dissociation of Tpm from phalloidin-stabilized F-actin; 20 µM F-actin, 10.5 µM Tpm, 30 mM Hepes-Na pH 7.3, 100 mM NaCl; light scattering at 90°, 350 nm, heating 1 °C/min; Tdiss: temperature of a 50% decrease.
Series [3] can be described thus: viscosimetry; falling-ball micro-viscometer, 20 °C; Tpm 2 mg/mL in 30 mM Hepes-Na pH 7.3, 100 mM NaCl, 4 mM DTT; viscosity over buffer viscosity; end-to-end interaction of adjacent Tpm molecules. Conditions: other: viscosimetry.

For “human E98K Tpm1.1 mutant (cardiac tropomyosin 1.1 with Glu98Lys), recombinant, with Ala-Ser N-terminal extension (natural protein)”, the K50% in series [1] is 2.57 µM. In series [2], this substance came in with a Tdiss of 42.4 °C. Turning to “wild-type cardiac tropomyosin 1.1 isoform (Tpm1.1), recombinant, with Ala-Ser N-terminal extension”, the “viscosity after subtraction of the buffer viscosity” value in series [3] came to 0.31 ± 0.01 mPa∙s. Same read-out and setting: for “human E98K Tpm1.1 mutant (cardiac tropomyosin 1.1 with Glu98Lys), recombinant, with Ala-Ser N-terminal extension” the value was 0.28 ± 0.01 mPa∙s. “wild-type cardiac tropomyosin 1.1 isoform (Tpm1.1), recombinant, with Ala-Ser N-terminal extension (natural protein)”: the K50% in series [1] was 2.45 µM. In series [2], this substance returned a Tdiss of 45.5 °C.
